From patent publication US20250115680A1 (PROFOUNDBIO US, published 2025)

How the values were obtained:
[1] = target: T1, rat PTK-7 recombinant protein (rat, UniProt A0A8I6ALM9 40-713); experiment: ELISA, plate-coated rat PTK7 protein, anti-human Fc-HRP detection
T1 construct: also called rat PTK7 protein
Experimental: (§1) Binding specificity property was tested by ELISA according to a standard protocol. Specifically, 96-well micro-plates were coated with 2 μg/mL human, cynomolgus, mouse, and rat PTK-7 recombinant protein in PBS 100 μL per well, incubated overnight at 4° C. Plates were washed twice by TBS+0.5% Tween20. 200 μL of blocking buffer (2% BSA in PBS) was added to each well and incubated at 37° C. for 2 hours. Plates were washed using the buffer mentioned above. Serially diluted antibodies were added to the ELISA plate with 100 μL per well and incubated for 1 hour at room temperature. Then plates were washed for 3 times. After washing, HRP conjugated anti-human Fc antibody solution (abcam, ab98624, diluted with blocking buffer) was added to the plate with 100 μl per well. The plates were incubated at room temperature for 1 hour and then washed for 3 times. Then TMB solution was added to plates with 100 μl per well, placed at room temperature for 5-15 mins, then the stop solution (2M H₂SO₄) was added with 50 μl per well. Finally, the result was measured by absorbance at A₄₅₀ and A₆₃₀.

[2] = target: T2, mouse PTK-7 recombinant protein (mouse, UniProt Q8BKG3 23-696, limits assumed); experiment: ELISA, plate coated with 2 ug/mL mouse PTK-7 recombinant protein, HRP anti-human Fc detection, OD450
T2 construct: also called mouse PTK7 protein
T2 sequence (looked up): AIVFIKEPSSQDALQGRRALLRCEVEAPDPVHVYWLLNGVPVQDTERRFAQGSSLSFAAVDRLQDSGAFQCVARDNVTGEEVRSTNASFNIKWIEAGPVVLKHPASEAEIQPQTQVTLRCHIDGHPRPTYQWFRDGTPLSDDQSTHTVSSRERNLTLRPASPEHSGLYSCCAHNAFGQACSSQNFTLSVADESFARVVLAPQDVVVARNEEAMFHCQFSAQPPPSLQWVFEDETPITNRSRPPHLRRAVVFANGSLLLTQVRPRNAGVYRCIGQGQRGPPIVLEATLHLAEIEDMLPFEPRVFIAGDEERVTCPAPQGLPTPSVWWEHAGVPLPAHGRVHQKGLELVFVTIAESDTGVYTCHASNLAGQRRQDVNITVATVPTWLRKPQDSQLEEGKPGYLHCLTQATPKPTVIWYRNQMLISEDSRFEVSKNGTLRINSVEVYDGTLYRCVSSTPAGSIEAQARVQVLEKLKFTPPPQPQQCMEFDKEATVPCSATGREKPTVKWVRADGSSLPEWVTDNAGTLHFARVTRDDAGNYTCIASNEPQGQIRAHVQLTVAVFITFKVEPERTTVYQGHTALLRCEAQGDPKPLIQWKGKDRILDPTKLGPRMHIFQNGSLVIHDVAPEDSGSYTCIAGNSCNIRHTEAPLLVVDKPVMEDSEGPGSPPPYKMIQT
Experimental: as §1

[3] = target: T1, rat PTK-7 recombinant protein; experiment: ELISA, plate coated with 2 ug/mL rat PTK-7 recombinant protein, HRP anti-human Fc detection, OD450
Experimental: as §1

[4] = target: T2, mouse PTK-7 recombinant protein; experiment: ELISA, plate-coated mouse PTK7 protein, anti-human Fc-HRP detection
Experimental: as §1

B1: humanized antibody 2C5 (antibody, V domains shown)
VH: QVQLVQSGAEVKKPGASVKVSCKASGYTFTDYYINWVRQAPGQGLEWMGDINPYSGGPVYNQKFMARVTMTVDKSINTAYMELSRLRSDDTAVYYCARGDYYGSNYNYWGQGTLVTVSS
VL: EIVLTQSPATLSVSPGERATLSCRASQNIGTSIHWYQQKPGQAPRLLIKFASESISGIPARFSGSGSGTEFTLTISSLQSEDIAVYYCQQSNNWPYTFGQGTKLEIK
notes: Only variable regions are tied to 2C5; It was detected with anti-human Fc, so it has a human Fc
Binder B1 has an EC50 [1] of 1.57 nM, an EC50 [2] of 1.57 nM and an EC50 [3] of 5.24 nM. The EC50 [4] was 5.24 nM.
